Laboratory results taken from patent US20110318846, “Aptamer and detection method for C-reactive protein” (National Cheng-Kung University, published 2011).

T1: C-reactive protein (CRP) (Homo sapiens, UniProt P02741 P02741:19-224)
T1 sequence: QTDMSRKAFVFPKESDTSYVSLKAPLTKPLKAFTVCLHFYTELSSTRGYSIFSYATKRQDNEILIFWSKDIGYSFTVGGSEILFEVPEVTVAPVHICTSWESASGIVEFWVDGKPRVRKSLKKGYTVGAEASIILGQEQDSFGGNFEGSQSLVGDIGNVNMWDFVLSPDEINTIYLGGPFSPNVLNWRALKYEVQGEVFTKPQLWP

B1: aptamer A (ssDNA)
DNA: GGCAGGAAGACAAACACGATGGGGGGGTATGATTTGATGTGGTTGTTGCATGATCGTGGTCTGTGGTGCTGT
modifications: 5'-biotin (SPR and bead assay)
B2: aptamer B (ssDNA)
DNA: GGCAGGAAGACAAACACACAAGCGGGTGGGTGTGTACTATTGCAGTATCTATTCTGTGGTCTGTGGTGCTGT

How the values were obtained:
[1] = biological target: T1, C-reactive protein (CRP); experiment: SPR; Biacore X, SA chip with biotinylated aptamer, 10 mM Tris, 50 mM NaCl, 2 mM CaCl2, 25 C, 1:1 Langmuir; details: immobilised on Dynabeads M-450 Epoxy for SELEX, in solution for SPR; chain copies: 5 inferred (pentamer)
Protocol: Then, 90 μL of the aptamer solution A being cooled to 4° C. is aliquoted, and the aptamer solution A is injected to pass the surface of the SA sensor chip, so that the aptamers A in the aptamer solution A is coated on the surface of the SA sensor chip. Later, 90 μL of the reverse primer solution is injected and passes through the surface of the SA sensor chip for blocking. Subsequently, 5×SSCT buffer is used to wash the surface of the SA sensor chip until the SPR response reaches a balance.
Five cycles as described in the following are then performed. Here, each cycle includes: (1) injecting 90 μL of the testing solution to pass through the surface of the SA sensor chip; (2) washing the surface of the SA sensor chip by using 90 μL of a washing buffer C (10 mM Tris buffer containing 50 mM NaCl and 2 mM CaCl₂); (3) recording the SPR response of the SA sensor chip for 5 min; and (4) injecting 90 μL of 100 mM NaOH to pass the surface of the SA sensor chip, so that the surface of the SA sensor chip is regenerated. The testing solutions used in the five cycles are washing buffers C respectively having a CRP concentration of 0.01, 0.05, 0.1, and 0.5 mg/L.
FIG. 4 is a SPR response measured under different CRP concentrations detected by the SA sensor chip coated with aptamers A along with time in the Biacore X system. […]

[2] = biological target: T1, C-reactive protein (CRP); experiment: competition; PCR product 3; CRP-coated tube, competition with free CRP, PCR readout, 25 C; details: immobilised on Dynabeads M-450 Epoxy for SELEX, in solution for SPR; chain copies: 5 inferred (pentamer)

| Binder | Kd [1] [nM] | binding result [2] |
| --- | --- | --- |
| B1 | 3.51 | – |
| B2 | – | binds |
